According to publication PMC10527347 (Journal of molecular biology, 2023):
Read-outs that look alike come from different tables or passages of the source. Each block holds one binder with its values, some of them ahead of it.

What was measured:
Hsp90Ec N347C [1] = target: T1, Hsp90Ec N347C (E. coli, UniProt P0A6Z3 1-624, N347C); test: cross-linking
Hsp90Ec N350C = Hsp90Ec N350C (E. coli, UniProt P0A6Z3 1-624, N350C); test: cross-linking
Hsp90Ec N347C/D80N = Hsp90Ec N347C/D80N (E. coli, UniProt P0A6Z3 1-624, N347C | D80N); test: cross-linking
Hsp90Ec N347C [2] = target: T1, Hsp90Ec N347C; test: cross-linking; remark: listed apart in the source
cross-linking = target: the molecule itself; test: cross-linking
Hsp90Ec K199C [3] = target: T2, Hsp90Ec K199C (E. coli, UniProt P0A6Z3 1-624, K199C); test: cross-linking
Hsp90Ec K71C = Hsp90Ec K71C (E. coli, UniProt P0A6Z3 1-624, K71C); test: cross-linking
Hsp90Ec K99C = Hsp90Ec K99C (E. coli, UniProt P0A6Z3 1-624, K99C); test: cross-linking
Hsp90Ec K103C = Hsp90Ec K103C (E. coli, UniProt P0A6Z3 1-624, K103C); test: cross-linking
Hsp90Ec K45C = Hsp90Ec K45C (E. coli, UniProt P0A6Z3 1-624, K45C); test: cross-linking
Hsp90Ec K238C = Hsp90Ec K238C (E. coli, UniProt P0A6Z3 1-624, K238C); test: cross-linking
Hsp90Ec K354C = Hsp90Ec K354C (E. coli, UniProt P0A6Z3 1-624, K354C); test: cross-linking
Hsp90Ec K199C [4] = target: T2, Hsp90Ec K199C; test: cross-linking; remark: listed apart in the source
Hsp90Ec wild-type [5] = target: T3, Hsp90Ec wild-type (E. coli, UniProt P0A6Z3 1-624); test: BLI
Hsp90Ec wild-type [6] = target: T3, Hsp90Ec wild-type; test: cross-linking
biotin-labeled Ydj1 = target: T4, biotin-labeled Ydj1 (S. cerevisiae, UniProt P25491 1-409, biotin label (site not stated)); test: pull-down
T4 sequence (looked up): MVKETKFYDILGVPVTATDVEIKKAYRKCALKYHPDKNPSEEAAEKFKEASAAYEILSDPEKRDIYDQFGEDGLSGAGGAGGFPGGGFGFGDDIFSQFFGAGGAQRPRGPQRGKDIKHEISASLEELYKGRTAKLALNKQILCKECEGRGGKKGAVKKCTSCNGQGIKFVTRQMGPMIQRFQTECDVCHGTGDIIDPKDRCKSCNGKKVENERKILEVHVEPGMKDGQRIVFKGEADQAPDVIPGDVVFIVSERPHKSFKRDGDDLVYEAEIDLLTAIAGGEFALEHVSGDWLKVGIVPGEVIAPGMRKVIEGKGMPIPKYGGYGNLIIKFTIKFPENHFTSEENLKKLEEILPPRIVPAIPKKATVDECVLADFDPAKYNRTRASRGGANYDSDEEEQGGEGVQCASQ

B1: CbpA A44C (natural protein, E. coli, UniProt P36659 1-306, looked up)
chain: MELKDYYAIMGVKPTDDLKTIKTAYRRLARKYHPDVSKEPDAECRFKEVAEAWEVLSDEQRRAEYDQMWQHRNDPQFNRQFHHGDGQSFNAEDFDDIFSSIFGQHARQSRQRPATRGHDIEIEVAVFLEETLTEHKRTISYNLPVYNAFGMIEQEIPKTLNVKIPAGVGNGQRIRLKGQGTPGENGGPNGDLWLVIHIAPHPLFDIVGQDLEIVVPVSPWEAALGAKVTVPTLKESILLTIPPGSQAGQRLRVKGKGLVSKKQTGDLYAVLKIVMPPKPDENTAALWQQLADAQSSFDPRKDWGKA
binding result (Hsp90Ec N347C [1]): binds

B2: CbpA E51C (natural protein, E. coli, UniProt P36659 1-306, looked up)
chain: MELKDYYAIMGVKPTDDLKTIKTAYRRLARKYHPDVSKEPDAEARFKEVACAWEVLSDEQRRAEYDQMWQHRNDPQFNRQFHHGDGQSFNAEDFDDIFSSIFGQHARQSRQRPATRGHDIEIEVAVFLEETLTEHKRTISYNLPVYNAFGMIEQEIPKTLNVKIPAGVGNGQRIRLKGQGTPGENGGPNGDLWLVIHIAPHPLFDIVGQDLEIVVPVSPWEAALGAKVTVPTLKESILLTIPPGSQAGQRLRVKGKGLVSKKQTGDLYAVLKIVMPPKPDENTAALWQQLADAQSSFDPRKDWGKA
binding result (Hsp90Ec N350C): binds
binding result (Hsp90Ec N347C/D80N): binds
binding result (Hsp90Ec N347C [2]): binds
binding result (cross-linking): binds
binding result (Hsp90Ec K199C [3]): binds

B7: Hsp82 wild-type (natural protein)
chain: not shown
fold change in interaction, with L2 against without L2 (biotin-labeled Ydj1): ~2 fold

More lines, now with the values ahead:

binding result (Hsp90Ec N347C [1]): binds
B3: CbpA S57C (natural protein, E. coli, UniProt P36659 1-306, looked up)
chain: MELKDYYAIMGVKPTDDLKTIKTAYRRLARKYHPDVSKEPDAEARFKEVAEAWEVLCDEQRRAEYDQMWQHRNDPQFNRQFHHGDGQSFNAEDFDDIFSSIFGQHARQSRQRPATRGHDIEIEVAVFLEETLTEHKRTISYNLPVYNAFGMIEQEIPKTLNVKIPAGVGNGQRIRLKGQGTPGENGGPNGDLWLVIHIAPHPLFDIVGQDLEIVVPVSPWEAALGAKVTVPTLKESILLTIPPGSQAGQRLRVKGKGLVSKKQTGDLYAVLKIVMPPKPDENTAALWQQLADAQSSFDPRKDWGKA

binding result (Hsp90Ec N347C [1]): binds
binding result (Hsp90Ec K71C): binds
binding result (Hsp90Ec K99C): binds
binding result (Hsp90Ec K103C): binds
binding result (Hsp90Ec K45C): binds
binding result (Hsp90Ec K238C): binds
binding result (Hsp90Ec K354C): binds
binding result (Hsp90Ec K199C [4]): binds
B4: CbpA K22C (natural protein, E. coli, UniProt P36659 1-306, looked up)
chain: MELKDYYAIMGVKPTDDLKTICTAYRRLARKYHPDVSKEPDAEARFKEVAEAWEVLSDEQRRAEYDQMWQHRNDPQFNRQFHHGDGQSFNAEDFDDIFSSIFGQHARQSRQRPATRGHDIEIEVAVFLEETLTEHKRTISYNLPVYNAFGMIEQEIPKTLNVKIPAGVGNGQRIRLKGQGTPGENGGPNGDLWLVIHIAPHPLFDIVGQDLEIVVPVSPWEAALGAKVTVPTLKESILLTIPPGSQAGQRLRVKGKGLVSKKQTGDLYAVLKIVMPPKPDENTAALWQQLADAQSSFDPRKDWGKA

Kd (Hsp90Ec wild-type [5]): 3.6 ± 0.3 µM
B5: biotin-labeled DnaJ (natural protein, E. coli, UniProt P08622 1-376, looked up)
chain: MAKQDYYEILGVSKTAEEREIRKAYKRLAMKYHPDRNQGDKEAEAKFKEIKEAYEVLTDSQKRAAYDQYGHAAFEQGGMGGGGFGGGADFSDIFGDVFGDIFGGGRGRQRAARGADLRYNMELTLEEAVRGVTKEIRIPTLEECDVCHGSGAKPGTQPQTCPTCHGSGQVQMRQGFFAVQQTCPHCQGRGTLIKDPCNKCHGHGRVERSKTLSVKIPAGVDTGDRIRLAGEGEAGEHGAPAGDLYVQVQVKQHPIFEREGNNLYCEVPINFAMAALGGEIEVPTLDGRVKLKVPGETQTGKLFRMRGKGVKSVRGGAQGDLLCRVVVETPVGLNERQKQLLQELQESFGGPTGEHNSPRSKSFFDGVKKFFDDLTR
modifications: biotin label (site not stated)

binding result (Hsp90Ec wild-type [6]): binds
binding result (Hsp90Ec K199C [3]): binds
B6: CbpA wild-type (natural protein, E. coli, UniProt P36659 1-306, looked up)
chain: MELKDYYAIMGVKPTDDLKTIKTAYRRLARKYHPDVSKEPDAEARFKEVAEAWEVLSDEQRRAEYDQMWQHRNDPQFNRQFHHGDGQSFNAEDFDDIFSSIFGQHARQSRQRPATRGHDIEIEVAVFLEETLTEHKRTISYNLPVYNAFGMIEQEIPKTLNVKIPAGVGNGQRIRLKGQGTPGENGGPNGDLWLVIHIAPHPLFDIVGQDLEIVVPVSPWEAALGAKVTVPTLKESILLTIPPGSQAGQRLRVKGKGLVSKKQTGDLYAVLKIVMPPKPDENTAALWQQLADAQSSFDPRKDWGKA
